What was measured:
[1] = tested on: p54^S6K; assay: In vitro kinase assay (GST-S6 substrate) of 167 anti-p54^S6K antiserum immunoprecipitates from mitogen-treated 293 cells; type: cell-based, human; settings: EGF 250 ng/ml or insulin 200 nM for 20 minutes
Procedure: (§1) 293 cells were treated with serum (10%), EGF (250 ng/ml), or insulin (200 nM) for 20 minutes, lysed, and the lysates were immunoprecipitated with 167 anti-p54^S6K antiserum or with N2 anti-p70^S6k antiserum. Phosphorimager™ counts from an in vitro kinase assay of the immunoprecipitates using GST-S6 as the substrate are shown.
(§2) Antibodies were made using standard techniques, such as those described in Harlow and Lane (Antibodies: A Laboratory Manual, Cold Spring Harbor Press, New York. 1988). The cells were starved and then stimulated with serum, EGF, or insulin, or left unstimulated. Rapamycin or wortmannin were also incubated with the cells prior to serum stimulation when indicated.
(§3) Lysates from 293 cells transfected with HA-p54^S6K or HA-p54^S6K KR were immunoblotted with anti-HA Ab. (FIG. 3B bottom left panel). […] This is of interest since a majority of the p70^S6k phosphorylation sites are conserved in p54^S6K (FIG. 1B). […] Finally, the activation kinetics of p54^S6K and p70^S6k were compared.

[2] = tested on: p70^S6k; assay: In vitro kinase assay (GST-S6 substrate) of N2 anti-p70^S6k antiserum immunoprecipitates from mitogen-treated 293 cells; type: cell-based, human; settings: EGF 250 ng/ml or insulin 200 nM for 20 minutes
Procedure: as §1, §2, §3

Substance	p54^S6K kinase activity (stimulation by mitogen) [1]	p70^S6k kinase activity (activation by mitogen) [2]
EGF	to a small degree	only mildly activated
insulin	stimulated	strongly activated
